Measurements as given in the supplement of paper PMC9112550, “Optimization of the antimicrobial peptide Bac7 by deep mutational scanning” (BMC Biology, 2022).

system: Escherichia coli TOP10; assay: shrunken log2 fold change of peptide-encoding DNA abundance (4.5 h post-induction vs induction); higher = less antimicrobial activity (less host growth inhibition); settings: time post-induction: 4.5 h; library: site-saturation at positions 5, 18, 19, 20
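Further: peptides expressed intracellularly from a pBAD plasmid library in pooled LB shake-flask culture, induced with 0.3% L-arabinose, DNA abundance read by NGS, three biological replicates, DESeq2 with apeglm shrinkage.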

Point of comparison: RRIRQRPPRLPRPRPRPGSPPRP, “shrunken log2 fold change” value -0.232. Against it:
- RRIRCRPPRLPRPRPRPQTTPRP — within 0.2 log units, -0.155
- RRIRKRPPRLPRPRPRPNPRPRP — higher, 0.228
- RRIRIRPPRLPRPRPRPPQLPRP — within 0.2 log units, -0.122
- RRIRNRPPRLPRPRPRPKAFPRP — within 0.2 log units, -0.0608
- RRIRQRPPRLPRPRPRPMLWPRP — higher, -0.00459
- RRIRSRPPRLPRPRPRPCHRPRP — within 0.2 log units, -0.0558
- RRIRRRPPRLPRPRPRPPKIPRP — higher, 0.403
- RRIRSRPPRLPRPRPRPPQQPRP — higher, 0.38
- RRIRVRPPRLPRPRPRPCPRPRP — higher, 0.368
- RRIRKRPPRLPRPRPRPFNDPRP — within 0.2 log units, -0.135
- RRIRVRPPRLPRPRPRPGNNPRP — within 0.2 log units, -0.249
- RRIRCRPPRLPRPRPRPEPHPRP — higher, 0.489
- RRIRRRPPRLPRPRPRPTEPPRP — higher, 0.4
- RRIRKRPPRLPRPRPRPQTGPRP — higher, 0.0141
- RRIRKRPPRLPRPRPRPKPIPRP — higher, 0.742
- RRIRTRPPRLPRPRPRPRFFPRP — higher, 0.0438
- RRIRRRPPRLPRPRPRPMFDPRP — higher, 0.195
- RRIRQRPPRLPRPRPRPYFAPRP — within 0.2 log units, -0.292
- RRIRIRPPRLPRPRPRPAYGPRP — within 0.2 log units, -0.253
- RRIRARPPRLPRPRPRPWYVPRP — within 0.2 log units, -0.0927
- RRIRLRPPRLPRPRPRPGIRPRP — higher, 0.0174
- RRIRMRPPRLPRPRPRPMIPPRP — lower, -0.448
- RRIRRRPPRLPRPRPRPSMTPRP — higher, 0.315
- RRIRFRPPRLPRPRPRPLSSPRP — within 0.2 log units, -0.307
- RRIRTRPPRLPRPRPRPLSKPRP — within 0.2 log units, -0.22
- RRIRARPPRLPRPRPRPPPCPRP — higher, 0.979
- RRIRTRPPRLPRPRPRPDELPRP — within 0.2 log units, -0.0838
- RRIRSRPPRLPRPRPRPKWNPRP — within 0.2 log units, -0.154
- RRIRIRPPRLPRPRPRPEACPRP — within 0.2 log units, -0.064
- RRIRERPPRLPRPRPRPKAEPRP — higher, 0.0519
- RRIRRRPPRLPRPRPRPANFPRP — within 0.2 log units, -0.0416
- RRIRDRPPRLPRPRPRPDFRPRP — within 0.2 log units, -0.0735
- RRIRIRPPRLPRPRPRPCAIPRP — higher, 0.137
- RRIRTRPPRLPRPRPRPVPHPRP — higher, -0.0291
- RRIRWRPPRLPRPRPRPHAMPRP — higher, 0.00797
- RRIRMRPPRLPRPRPRPNKLPRP — within 0.2 log units, -0.145
- RRIRFRPPRLPRPRPRPVMKPRP — within 0.2 log units, -0.189
- RRIRLRPPRLPRPRPRPKGYPRP — within 0.2 log units, -0.146
- RRIRRRPPRLPRPRPRPDHKPRP — higher, 0.027
- RRIRQRPPRLPRPRPRPAVAPRP — higher, 0.0726
- RRIRFRPPRLPRPRPRPNKVPRP — lower, -0.92
- RRIRWRPPRLPRPRPRPTNGPRP — within 0.2 log units, -0.134
- RRIRCRPPRLPRPRPRPHHYPRP — lower, -0.685
- RRIRPRPPRLPRPRPRPWYTPRP — higher, -0.0297
- RRIRMRPPRLPRPRPRPELMPRP — higher, 3.86
- RRIRKRPPRLPRPRPRPPENPRP — higher, 1.15
- RRIRRRPPRLPRPRPRPGYPPRP — higher, 0.00327
- RRIRMRPPRLPRPRPRPAMFPRP — higher, 0.388
- RRIRNRPPRLPRPRPRPGWLPRP — higher, 0.174
- RRIRQRPPRLPRPRPRPWLDPRP — higher, 0.19
- RRIRKRPPRLPRPRPRPKLQPRP — higher, 0.423
- RRIRSRPPRLPRPRPRPTIFPRP — within 0.2 log units, -0.377
- RRIRIRPPRLPRPRPRPENLPRP — within 0.2 log units, -0.0595
- RRIRTRPPRLPRPRPRPLFTPRP — within 0.2 log units, -0.352
- RRIRVRPPRLPRPRPRPNAAPRP — higher, 0.0557
- RRIRRRPPRLPRPRPRPTWTPRP — higher, 0.464
- RRIRIRPPRLPRPRPRPDWFPRP — higher, 0.0564
- RRIRSRPPRLPRPRPRPKSRPRP — higher, -0.0201
- RRIRERPPRLPRPRPRPPCRPRP — higher, -0.0117
- RRIRLRPPRLPRPRPRPQHFPRP — within 0.2 log units, -0.343
- RRIRSRPPRLPRPRPRPPRYPRP — higher, -0.0232
- RRIRNRPPRLPRPRPRPQHEPRP — within 0.2 log units, -0.0581
- RRIRGRPPRLPRPRPRPYYCPRP — within 0.2 log units, -0.172
- RRIRKRPPRLPRPRPRPCQCPRP — within 0.2 log units, -0.0903
- RRIRCRPPRLPRPRPRPCPQPRP — within 0.2 log units, -0.184
- RRIRFRPPRLPRPRPRPKTCPRP — higher, 0.0353
- RRIRRRPPRLPRPRPRPLTAPRP — higher, 0.337
- RRIRCRPPRLPRPRPRPCTWPRP — within 0.2 log units, -0.0985
- RRIRRRPPRLPRPRPRPIKMPRP — within 0.2 log units, -0.0923
- RRIRSRPPRLPRPRPRPLHIPRP — within 0.2 log units, -0.0437
- RRIRVRPPRLPRPRPRPAKFPRP — higher, 0.42
- RRIRWRPPRLPRPRPRPCHYPRP — within 0.2 log units, -0.0893
- RRIRVRPPRLPRPRPRPDCMPRP — higher, 0.116
- RRIRNRPPRLPRPRPRPEQVPRP — higher, 0.0249
- RRIRRRPPRLPRPRPRPAPDPRP — higher, 1.65
- RRIRPRPPRLPRPRPRPNYCPRP — within 0.2 log units, -0.239
- RRIRQRPPRLPRPRPRPHKKPRP — within 0.2 log units, -0.215
- RRIRNRPPRLPRPRPRPWMRPRP — higher, 0.311
- RRIRGRPPRLPRPRPRPRSLPRP — higher, 0.778
- RRIRERPPRLPRPRPRPYGRPRP — within 0.2 log units, -0.264
- RRIRFRPPRLPRPRPRPDKEPRP — higher, -0.0026
- RRIRPRPPRLPRPRPRPWGKPRP — higher, 0.248
- RRIRNRPPRLPRPRPRPSWEPRP — within 0.2 log units, -0.32
- RRIRRRPPRLPRPRPRPMIFPRP — within 0.2 log units, -0.241
- RRIRVRPPRLPRPRPRPIQIPRP — lower, -1.33
- RRIRERPPRLPRPRPRPDWPPRP — higher, 0.108
- RRIRARPPRLPRPRPRPMNYPRP — within 0.2 log units, -0.182
- RRIRFRPPRLPRPRPRPFVVPRP — within 0.2 log units, -0.219
- RRIRMRPPRLPRPRPRPAGMPRP — higher, 0.655
- RRIRIRPPRLPRPRPRPGTKPRP — within 0.2 log units, -0.0997
- RRIRMRPPRLPRPRPRPNPQPRP — higher, 0.279
- RRIRDRPPRLPRPRPRPMHLPRP — within 0.2 log units, -0.339
- RRIRWRPPRLPRPRPRPLHWPRP — higher, 0.296
- RRIRLRPPRLPRPRPRPNMLPRP — lower, -0.58
- RRIRYRPPRLPRPRPRPHKPPRP — within 0.2 log units, -0.171
- RRIRWRPPRLPRPRPRPRIIPRP — higher, 0.136
- RRIRRRPPRLPRPRPRPANCPRP — higher, 0.00326
- RRIRRRPPRLPRPRPRPYFNPRP — within 0.2 log units, -0.2
- RRIRQRPPRLPRPRPRPQMSPRP — within 0.2 log units, -0.0844
- RRIRWRPPRLPRPRPRPQSQPRP — higher, 0.00151
- RRIRRRPPRLPRPRPRPVLTPRP — higher, 0.386
- RRIRKRPPRLPRPRPRPWPCPRP — higher, 0.161
- RRIRIRPPRLPRPRPRPVSVPRP — within 0.2 log units, -0.191
- RRIRNRPPRLPRPRPRPHHDPRP — lower, -1.01
- RRIRHRPPRLPRPRPRPNYFPRP — within 0.2 log units, -0.125
- RRIRFRPPRLPRPRPRPTDMPRP — higher, 0.0617
- RRIRMRPPRLPRPRPRPLVMPRP — higher, 0.0504
- RRIRDRPPRLPRPRPRPDIRPRP — higher, -0.00151
- RRIRVRPPRLPRPRPRPFMSPRP — higher, 0.0334
- RRIRGRPPRLPRPRPRPTIYPRP — higher, 0.365
- RRIRTRPPRLPRPRPRPHYMPRP — lower, -0.476
- RRIRLRPPRLPRPRPRPDPYPRP — higher, 0.0541
- RRIRTRPPRLPRPRPRPYFDPRP — lower, -0.738
- RRIRLRPPRLPRPRPRPSRKPRP — within 0.2 log units, -0.177
- RRIRNRPPRLPRPRPRPLLNPRP — lower, -0.443
- RRIRQRPPRLPRPRPRPHNNPRP — lower, -0.748
- RRIRHRPPRLPRPRPRPGQLPRP — higher, 0.174
- RRIRARPPRLPRPRPRPAHNPRP — higher, 0.155
- RRIRIRPPRLPRPRPRPRCKPRP — within 0.2 log units, -0.35
- RRIRFRPPRLPRPRPRPVTIPRP — within 0.2 log units, -0.118
- RRIRWRPPRLPRPRPRPFSWPRP — higher, 0.0632
- RRIRQRPPRLPRPRPRPKEYPRP — higher, 0.0124
- RRIRPRPPRLPRPRPRPPMTPRP — higher, 0.0831
- RRIRQRPPRLPRPRPRPRQHPRP — within 0.2 log units, -0.141
